Assay results reported in patent US8822165B2, “Method for producing cAMP using chimeric olfactory receptor” (Panasonic Corporation, priority 2010, dated 2014).

B1: Rho-myc-Olfr168: Rho-tag, myc epitope tag and EC1-IC4 domains of the Olfr168, mouse olfactory receptor for 2-pentanone (protein)
chain: MNGTEGPNFYVPFSNKTGVVEQKLISEEDLEFMEKWNQSSSDFILLGLLPQNQTGLLLMMLIILVFFLALFGNSAMIHLIRVDPRLHTPMYFLLSQLSLMDLMYISTTVPKMAFNFLSGQKNISFLGCGVQSFFFLTMAGSEGLLLASMAYDRFVAICHPLHYPIRMSKIMCLKMIIGSWILGSINSLAHSIYALHIPYCHSRSINHFFCDVPAMLPLACMDTWVYEYMVFVSTSLFLLLPFLGITASYGRVLFAVFHMRSKEGKKKAFTTCSTHLTVVTFYYAPFVYTYLRPRSLRSPTEDKILTVFYTILTPMLNPIIYSLRNKEVLGAMTRVLGTFSSMKP
modifications: Rho-myc-olfr168
B2: Rho-myc-Olfr609: Rho-tag, myc epitope tag and EC1-IC4 domains of the Olfr609, mouse olfactory receptor for vanillic acid (protein)
chain: MNGTEGPNFYVPFSNKTGVVEQKLISEEDLEFMSYSNHSSTSFFLTGLPGLETVYLWLSIPLCTMYIASLAGNGLILWVVKSEPSLHQPMYYFLSMLAVTDLGLSVSTLPTMLTIYMMGVSEVALDMCLAQLFFIHTFSIMESSVLLTMAFDRVVAISSPLHYATILTNPRVASLGMVILVRSIGLHIPAPIMLKKLPYCQKRHLSHSYCLHPDVMKLACTDTRINSAYGLFVVLSTLGVDSVLIVLSYGLILYTVLSIASKTERLKALNTCVSHICSVLLFYTPMIGLSMIHRFGKWASPCSRVLLSYLHFLTPPVLNPVVYTIKTKQIRQRIWRIFRCGGRSIGHIQGH
modifications: Rho-myc-olfr609
B3: chimeraOlfr609: IC4 domain of the Rho-myc-Olfr609 substituted with that of the beta-1 adrenergic receptor (protein)
chain: MNGTEGPNFYVPFSNKTGVVEQKLISEEDLEFMSYSNHSSTSFFLTGLPGLETVYLWLSIPLCTMYIASLAGNGLILWVVKSEPSLHQPMYYFLSMLAVTDLGLSVSTLPTMLTIYMMGVSEVALDMCLAQLFFIHTFSIMESSVLLTMAFDRVVAISSPLHYATILTNPRVASLGMVILVRSIGLHIPAPIMLKKLPYCQKRHLSHSYCLHPDVMKLACTDTRINSAYGLFVVLSTLGVDSVLIVLSYGLILYTVLSIASKTERLKALNTCVSHICSVLLFYTPMIGLSMIHRFGKWASPCSRVLLSYLHFLTPPVLNPVVYTIKTKDFRKAFQRLLCCARRAACRRRAAHGDRPRASGCLARAGPPPSPGAPSDDDDDDAGATPPARLLEPWAGCNGGTTTVDSDSSLDEPGRQGFSSESKV
modifications: ChimeraOlfr 609
notes: IC4 domain of the Rho-myc-Olfr609 substituted with that of the beta-1 adrenergic receptor
B4: Rho-myc-Olfr15: Rho-tag, myc epitope tag and EC1-IC4 domains of the Olfr15, mouse olfactory receptor for cyclohexanone (protein)
chain: MNGTEGPNFYVPFSNKTGVVEQKLISEEDLEFMEVDSNSSSGSFILMGVSDHPHLEIIFFAVILASYLLTLVGNLTIILLSRLDARLHTPMYFFLSNLSSLDLAFTTSSVPQMLKNLWGPDKTISYGGCVTQLYVFLWLGATECILLVVMAFDRYVAVCRPLHYMTVMNPRLCWGLAAISWLGGLGNSVIQSTFTLQLPFCGHRKVDNFLCEVPAMIKLACGDTSLNEAVLNGVCTFFTVVPVSVILVSYCFIAQAVMKIRSVEGRRKAFNTCVSHLVVVFLFYGSAIYGYLLPAKSSNQSQGKFISLFYSVVTPMVNPLIYTLRNKEVKGALGRLLGKGRGAS
modifications: Rho-myc-Olfr15
B5: chimeraOlfr168: Rho-myc-Olfr168 where the IC4 domain was substituted with that of the beta-1 adrenergic receptor (protein)
chain: MNGTEGPNFYVPFSNKTGVVEQKLISEEDLEFMEKWNQSSSDFILLGLLPQNQTGLLLMMLIILVFFLALFGNSAMIHLIRVDPRLHTPMYFLLSQLSLMDLMYISTTVPKMAFNFLSGQKNISFLGCGVQSFFFLTMAGSEGLLLASMAYDRFVAICHPLHYPIRMSKIMCLKMIIGSWILGSINSLAHSIYALHIPYCHSRSINHFFCDVPAMLPLACMDTWVYEYMVFVSTSLFLLLPFLGITASYGRVLFAVFHMRSKEGKKKAFTTCSTHLTVVTFYYAPFVYTYLRPRSLRSPTEDKILTVFYTILTPMLNPIIYSLRNKDFRKAFQRLLCCARRAACRRRAAHGDRPRASGCLARAGPPPSPGAPSDDDDDDAGATPPARLLEPWAGCNGGTTTVDSDSSLDEPGRQGFSSESKV
modifications: ChimeraOlfr168
notes: Rho-myc-Olfr168 where the IC4 domain was substituted with that of the beta-1 adrenergic receptor
B6: chimeraOlfr15: IC4 domain of the Rho-myc-Olfr15 substituted with that of the beta-1 adrenergic receptor (protein)
chain: MNGTEGPNFYVPFSNKTGVVEQKLISEEDLEFMEVDSNSSSGSFILMGVSDHPHLEIIFFAVILASYLLTLVGNLTIILLSRLDARLHTPMYFFLSNLSSLDLAFTTSSVPQMLKNLWGPDKTISYGGCVTQLYVFLWLGATECILLVVMAFDRYVAVCRPLHYMTVMNPRLCWGLAAISWLGGLGNSVIQSTFTLQLPFCGHRKVDNFLCEVPAMIKLACGDTSLNEAVLNGVCTFFTVVPVSVILVSYCFIAQAVMKIRSVEGRRKAFNTCVSHLVVVFLFYGSAIYGYLLPAKSSNQSQGKFISLFYSVVTPMVNPLIYTLRNKDFRKAFQRLLCCARRAACRRRAAHGDRPRASGCLARAGPPPSPGAPSDDDDDDAGATPPARLLEPWAGCNGGTTTVDSDSSLDEPGRQGFSSESKV
modifications: ChimeraOlfr15
notes: IC4 domain of the Rho-myc-Olfr15 substituted with that of the beta-1 adrenergic receptor

Legend:
Assay type in all cases: cell-based
[1] = system: HEK293T cells; test: cAMP production by Olfr168-derived receptors expressed in HEK293T cells, 2-pentanone as agonist (Experiment 2)
Description: (§1) Subsequently, the HEK293T cells were transfected with the above-mentioned three plasmids by a lipofection method. The HEK293T cells were incubated for 48 hours, and the β1AR consisting of the protein represented by SEQ ID NO: 03 was expressed on the cell membrane of the HEK293T cell.
(§2) The abbreviation “IBMX” means 3-isobutyl-1-methylxanthine. The IBMX is one of the phosphodiesterase inhibitors. The IBMX stabilizes cAMP, which is unstable.
The expression was conducted similarly to that of the step 2 of the reference example 1 except that the plasmid (Rho-myc-Olfr168) was used instead of the plasmid (β1AR). In this way, the Rho-myc-Olfr168 (SEQ ID NO: 49) was expressed on a cell membrane.
The concentrations of the cAMP were measured similarly to the step 3 of the comparative example 1-1 except that 2-pentanone aqueous solutions having concentrations of 30 μM, 100 μM, 300 μM, 1000 μM, and 3000 μM were used as agonists instead of the eugenol aqueous solutions.
The expression was conducted similarly to that of the step 2 of the reference example 1 except that the plasmid (chimeraOlfr168) was used instead of the plasmid (β1AR). In this way, the chimeraOlfr168 (SEQ ID NO: 51) was expressed on a cell membrane.
The concentrations of the cAMP were measured similarly to the step 3 of the comparative example 2-1.

[2] = system: HEK293T cells; test: cAMP production by Olfr609-derived receptors expressed in HEK293T cells, vanillic acid as agonist (Experiment 4)
Description: as §1, §2
The expression was conducted similarly to that of the step 2 of the reference example 1 except that the plasmid (Rho-myc-Olfr609) was used instead of the plasmid (β1AR). In this way, the Rho-myc-Olfr609 (SEQ ID NO: 64) was expressed on a cell membrane.
Instead of the eugenol aqueous solutions, the concentrations of the cAMP were measured similarly to the step 3 of the comparative example 1-1 except that vanillic acid aqueous solutions having concentrations of 0.30 μM, 1 μM, 3 μM, 10 μM, and 30 μM were used as agonists.
The expression was conducted similarly to that of the step 2 of the reference example 1 except that the plasmid (chimeraOlfr609) was used instead of the plasmid (β1AR). In this way, the chimeraOlfr609 (SEQ ID NO: 69) was expressed on a cell membrane.
The concentrations of the cAMP were measured similarly to the step 3 of the comparative example 4-1.

[3] = system: HEK293T cells; test: cAMP production by Olfr15-derived receptors expressed in HEK293T cells, cyclohexanone as agonist (Experiment 3)
Description: as §1, §2
The expression was conducted similarly to that of the step 2 of the reference example 1 except that the plasmid (Rho-myc-Olfr15) was used instead of the plasmid (β1AR). In this way, the Rho-myc-Olfr15 (SEQ ID NO: 58) was expressed on a cell membrane.
Instead of the eugenol aqueous solutions, the concentrations of the cAMP were measured similarly to the step 3 of the comparative example 1-1 except that cyclohexanone aqueous solutions having concentrations of 30 μM, 100 μM, 300 μM, 1000 μM, and 3000 μM were used as agonists.
The expression was conducted similarly to that of the step 2 of the reference example 1 except that the plasmid (chimeraOlfr15) was used instead of the plasmid (β1AR). In this way, the chimeraOlfr15 (SEQ ID NO: 60) was expressed on a cell membrane.
The concentrations of the cAMP were measured similarly to the step 3 of the comparative example 3-1.

Molecule | concentration of the cAMP ([1]; 2-pentanone 0 μM) | concentration of the cAMP ([1]; 2-pentanone 30 μM) | concentration of the cAMP ([1]; 2-pentanone 100 μM) | concentration of the cAMP ([1]; 2-pentanone 300 μM) | concentration of the cAMP ([1]; 2-pentanone 1000 μM) | concentration of the cAMP ([1]; 2-pentanone 3000 μM) | concentration of the cAMP ([2]; vanillic acid 0 μM) | concentration of the cAMP ([2]; vanillic acid 0.3 μM) | concentration of the cAMP ([2]; vanillic acid 1 μM) | concentration of the cAMP ([2]; vanillic acid 3 μM) | concentration of the cAMP ([2]; vanillic acid 10 μM) | concentration of the cAMP ([2]; vanillic acid 30 μM) | concentration of the cAMP ([3]; cyclohexanone 0 μM) | concentration of the cAMP ([3]; cyclohexanone 30 μM) | concentration of the cAMP ([3]; cyclohexanone 100 μM) | concentration of the cAMP ([3]; cyclohexanone 1000 μM) | concentration of the cAMP ([3]; cyclohexanone 3000 μM) | also measured
B1 | 0.0215 | 0.0170 | 0.0170 | 0.0280 | 0.0400 | 0.0444 |  |  |  |  |  |  |  |  |  |  |  | 
B2 |  |  |  |  |  |  | 0.014 | 0.070 | 0.076 | 0.127 | 0.067 | 0.071 |  |  |  |  |  | 
B3 |  |  |  |  |  |  | 0.075 | 0.166 | 0.160 | 0.192 | 0.162 | 0.187 |  |  |  |  |  | concentration of the cAMP compared with Rho-myc-Olfr609 (in words) ([2]; vanillic acid, Table 8): much greater
B4 |  |  |  |  |  |  |  |  |  |  |  |  | 0.0173 | 0.0180 | 0.0210 | 0.0280 | 0.0444 | 
B5 | 0.0187 | 0.0220 | 0.0270 | 0.0520 | 0.0775 | 0.0916 |  |  |  |  |  |  |  |  |  |  |  | concentration of the cAMP compared with Rho-myc-Olfr168 (in words) ([1]; 2-pentanone, Table 6): much greater
B6 |  |  |  |  |  |  |  |  |  |  |  |  | 0.0282 | 0.0280 | 0.0250 | 0.0290 | 0.0916 | concentration of the cAMP compared with Rho-myc-olfr15 (in words) ([3]; cyclohexanone, Table 7): much greater
